Data reported in PMC7692546.

Key:
[1] = target: F. hepatica cathepsin L3 (Fasciola hepatica); assay: enzyme inhibition (fluorogenic peptide substrate); KT inhibitor (2 μM) incubated with each protease in 100 μl reaction buffer for 15 min at 37 °C, then fluorogenic substrate; inhibition constants by the Morrison equation for tight-binding inhibition
[2] = target: F. hepatica cathepsin L3 (Fasciola hepatica)
[3] = target: F. hepatica cathepsin L1 (Fasciola hepatica); assay: enzyme inhibition (fluorogenic peptide substrate); KT inhibitor (2 μM) incubated with each protease in 100 μl reaction buffer for 15 min at 37 °C, then fluorogenic substrate; inhibition constants by the Morrison equation for tight-binding inhibition
[4] = target: F. hepatica cathepsin L2 (Fasciola hepatica); assay: as above
[5] = target: Human cathepsin K (human) (UniProt P43235); assay: as above
[6] = target: Human cathepsin L (human); assay: as above
Bovine trypsin (bovine) [7] = target: Bovine trypsin (bovine)
Bovine trypsin (bovine) [8] = assay: enzyme inhibition (fluorogenic peptide substrate); KT inhibitor (2 μM) incubated with each protease in 100 μl reaction buffer for 15 min at 37 °C, then fluorogenic substrate; inhibition constants by the Morrison equation for tight-binding inhibition

Chain of Human cathepsin K (human) (P43235 115-329): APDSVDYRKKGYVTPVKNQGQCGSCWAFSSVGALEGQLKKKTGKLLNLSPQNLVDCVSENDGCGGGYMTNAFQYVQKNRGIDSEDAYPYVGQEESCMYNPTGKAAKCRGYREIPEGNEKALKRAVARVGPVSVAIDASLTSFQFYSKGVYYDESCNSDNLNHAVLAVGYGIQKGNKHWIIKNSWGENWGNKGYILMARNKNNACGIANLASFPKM

| Substance | Ki [1] | reduction of FhCL3 activity at 2 μM inhibitor (fluorogenic substrate) [2] | Ki [3] | Ki [4] | Ki [5] | Ki [6] | reduction in trypsin activity at 2 μM inhibitor (fluorogenic substrate) (Bovine trypsin (bovine) [7]) | Ki (Bovine trypsin (bovine) [8]) |
| --- | --- | --- | --- | --- | --- | --- | --- | --- |
| rFhKT1.1Leu^15/Arg^15 (natural protein) | 3.6 nM |  |  |  |  |  |  |  |
| Recombinant FhKT1.1 (Fasciola hepatica Kunitz-type inhibitor 1.1) (natural protein) | 1.8 nM | 93.1% |  |  |  |  |  |  |
| rFhKT1.1Arg^19/Ala^19 (natural protein) | 32.8 nM |  | 4.2 nM | 35 nM | 18.5 nM | 0.3 nM |  |  |
| Recombinant FhKT1.3 (Fasciola hepatica Kunitz-type inhibitor 1.3) (natural protein) | 3.2 nM |  | 0.6 nM | 10.6 nM | 5.5 nM | 2.6 nM | 99.2% | 1.8 nM |
